Patent US20200292537A1 (THEUNITEDSTATES OF AMERICA ASREPRESENTEDBYTHE SECRETARYOF …, published 2020)
Blank lines part the entries; values can stand above or below the molecule they belong to.

Key:
[1] = target: recombinant RON protein (extracellular domain, R&D Systems) (human) (UniProt Q04912); test: full-length MET sandwich immunoassay; RON extracellular domain at 4 to 400 pM, 10-fold over rMET
[2] = target: T1, recombinant RON (cytoplasmic domain, Millipore) (UniProt Q04912 983-1400, limits assumed); test: Western blot of recombinant RON and preincubation of the antibody with RON
T1 construct: domain: cytoplasmic domain; also called recombinant cytoplasmic RON; cytoplasmic domain of RON
T1 sequence (looked up): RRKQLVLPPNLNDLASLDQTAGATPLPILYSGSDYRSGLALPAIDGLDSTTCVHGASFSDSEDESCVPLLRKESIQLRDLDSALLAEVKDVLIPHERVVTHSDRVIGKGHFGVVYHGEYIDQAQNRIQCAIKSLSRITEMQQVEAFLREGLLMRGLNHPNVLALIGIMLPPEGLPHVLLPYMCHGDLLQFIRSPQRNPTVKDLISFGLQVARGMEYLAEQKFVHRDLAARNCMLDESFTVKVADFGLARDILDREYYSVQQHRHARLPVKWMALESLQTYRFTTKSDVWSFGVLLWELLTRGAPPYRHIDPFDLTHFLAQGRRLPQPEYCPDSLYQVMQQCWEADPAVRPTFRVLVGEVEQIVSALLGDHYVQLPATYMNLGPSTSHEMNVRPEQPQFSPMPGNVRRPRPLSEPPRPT

[3] = target: pY1235-MET (human MET phosphorylated at tyrosine 1235) (human) (UniProt P08581); test: interaction analysis with a BIAlite-Biosensor (Pharmacia), range of protein concentrations
Sequence of pY1235-MET (human MET phosphorylated at tyrosine 1235) (human) (P08581 25-1390 limits assumed): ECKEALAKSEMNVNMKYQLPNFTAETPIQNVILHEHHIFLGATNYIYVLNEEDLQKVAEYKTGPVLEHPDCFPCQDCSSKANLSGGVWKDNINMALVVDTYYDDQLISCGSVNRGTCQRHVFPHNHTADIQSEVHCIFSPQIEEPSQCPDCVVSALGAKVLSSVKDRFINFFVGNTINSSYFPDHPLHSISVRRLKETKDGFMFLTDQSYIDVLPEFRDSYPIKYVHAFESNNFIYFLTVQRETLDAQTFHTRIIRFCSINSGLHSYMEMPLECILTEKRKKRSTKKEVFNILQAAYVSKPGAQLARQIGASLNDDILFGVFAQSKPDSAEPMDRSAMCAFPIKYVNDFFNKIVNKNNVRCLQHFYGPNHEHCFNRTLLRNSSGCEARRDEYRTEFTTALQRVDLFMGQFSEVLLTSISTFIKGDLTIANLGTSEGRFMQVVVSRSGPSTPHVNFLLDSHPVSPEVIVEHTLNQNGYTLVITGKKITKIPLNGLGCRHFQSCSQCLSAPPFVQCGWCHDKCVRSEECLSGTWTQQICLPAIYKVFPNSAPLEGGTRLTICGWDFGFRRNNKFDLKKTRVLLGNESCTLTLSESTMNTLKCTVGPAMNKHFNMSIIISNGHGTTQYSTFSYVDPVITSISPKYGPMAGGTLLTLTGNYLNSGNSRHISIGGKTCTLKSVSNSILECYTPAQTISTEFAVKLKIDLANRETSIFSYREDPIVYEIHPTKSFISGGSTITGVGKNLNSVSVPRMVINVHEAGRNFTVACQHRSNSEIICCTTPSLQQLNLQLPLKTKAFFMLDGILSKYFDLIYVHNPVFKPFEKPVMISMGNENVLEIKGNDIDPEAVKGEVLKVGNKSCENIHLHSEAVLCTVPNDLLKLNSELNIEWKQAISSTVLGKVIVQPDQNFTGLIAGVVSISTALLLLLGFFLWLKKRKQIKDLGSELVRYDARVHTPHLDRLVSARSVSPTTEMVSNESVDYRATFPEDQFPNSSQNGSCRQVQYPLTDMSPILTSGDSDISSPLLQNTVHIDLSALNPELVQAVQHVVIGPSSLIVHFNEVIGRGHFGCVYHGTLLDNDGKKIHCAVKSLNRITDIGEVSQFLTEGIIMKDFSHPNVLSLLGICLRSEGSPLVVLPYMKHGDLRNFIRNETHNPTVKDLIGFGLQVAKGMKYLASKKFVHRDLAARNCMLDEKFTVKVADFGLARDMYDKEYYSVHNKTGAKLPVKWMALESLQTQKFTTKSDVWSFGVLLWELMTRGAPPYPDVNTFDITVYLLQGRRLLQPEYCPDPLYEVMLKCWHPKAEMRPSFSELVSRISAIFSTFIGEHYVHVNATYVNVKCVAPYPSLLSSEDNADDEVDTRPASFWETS

Sequence of recombinant RON protein (extracellular domain, R&D Systems) (human) (Q04912 25-957): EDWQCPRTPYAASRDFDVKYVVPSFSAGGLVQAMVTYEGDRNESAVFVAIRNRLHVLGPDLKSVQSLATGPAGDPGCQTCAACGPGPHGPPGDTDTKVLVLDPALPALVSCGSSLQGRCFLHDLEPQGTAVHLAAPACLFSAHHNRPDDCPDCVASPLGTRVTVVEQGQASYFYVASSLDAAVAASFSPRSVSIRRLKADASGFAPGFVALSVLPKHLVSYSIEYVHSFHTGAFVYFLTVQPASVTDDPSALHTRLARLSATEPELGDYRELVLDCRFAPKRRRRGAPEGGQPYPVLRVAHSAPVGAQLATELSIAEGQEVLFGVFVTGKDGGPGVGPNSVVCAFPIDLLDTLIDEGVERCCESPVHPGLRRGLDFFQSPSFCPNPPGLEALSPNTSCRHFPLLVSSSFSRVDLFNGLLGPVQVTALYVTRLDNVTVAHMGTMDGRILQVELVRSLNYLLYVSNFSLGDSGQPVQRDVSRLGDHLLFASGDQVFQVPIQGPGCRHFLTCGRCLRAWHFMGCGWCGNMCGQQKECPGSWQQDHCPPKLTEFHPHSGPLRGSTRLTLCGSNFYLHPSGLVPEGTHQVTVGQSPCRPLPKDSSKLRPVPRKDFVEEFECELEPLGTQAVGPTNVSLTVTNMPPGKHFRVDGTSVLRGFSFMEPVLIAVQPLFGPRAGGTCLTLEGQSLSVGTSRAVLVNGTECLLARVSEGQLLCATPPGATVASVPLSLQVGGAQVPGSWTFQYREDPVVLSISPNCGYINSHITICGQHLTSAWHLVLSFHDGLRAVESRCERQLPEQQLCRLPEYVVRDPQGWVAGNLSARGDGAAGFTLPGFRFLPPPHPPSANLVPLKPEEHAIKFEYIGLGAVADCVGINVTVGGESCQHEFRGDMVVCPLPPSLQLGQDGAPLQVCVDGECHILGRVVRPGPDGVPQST

- cross-reactivity [1]: < 5%
Molecule: antigen affinity purified goat polyclonal anti-human MET extracellular domain antibody (catalog number AF276, R&D Systems)

- binding result [2]: no binding
- IC50 [3]: 1.2 nM
B1: rabbit monoclonal anti-pY1235-MET antibody, clone 23111 (antibody, V domains shown)
VH: QSVEESGGRLVTPGTPLTLTCTVSGFSLSNYAMGWFRQAPGKGLEWIGIISRSGALWYANWANGRFTISKTSTTVDLKITSPTPEDTATYFCARTNYYDGYGGVDAVLTRFDFWGQGTLVTVSS
VL: DVVMTQTPSSVEAAVGGTVTIKCQASQSIGGGLSWYQQKAGQPPKLLIYGASTLESGVPSRFKGSGSGTEFTLTISDLECADAATYYCQSNYGSDIRDYGHTFGGGTEVVVKG
notes: Rabbit IgG from a hybridoma (Epitomics), later made as a recombinant protein in HEK293 cells; Biotin-conjugated when used as reporter in the sandwich immunoassay; also called antibody #23111; mAb #23111
